Results reported in patent US20120301469A1 (Ablynx, published 2012).

Columns and labels:
[1] = target: T1, protein F of hRSV strain B-1 (on RSV B-1-infected Hep2 cells and on virus) (human respiratory syncytial virus, …, UniProt P13843 26-574); test: cell-based or functional assay
[2] = target: T2, protein F of hRSV strain Long, on virus (inactivated hRSV Long, Hytest #8RSV79; RSV Long LM-2, ATCC VR-26) (human respiratory syncytial virus, …, UniProt P12568 26-574); test: cell-based or functional assay
[3] = target: T1, protein F of hRSV strain B-1 (on RSV …); test: cell-based or functional assay; remark: listed apart in the source
[4] = target: T3, hRSV FTM-NN (membrane anchorless form of the Long fusion protein, 70 kDa) (human respiratory syncytial virus, …, UniProt P12568 26-524); test: ELISA on immobilized FTM-NN, periplasmic extract 1:10
T3 construct: also called FTM-NN (Long); hRSV FTM-protein

[5] = target: T1, protein F of hRSV strain B-1 (on RSV …); test: cell ELISA on RSV B-1-infected Hep2 cells, periplasmic extract 1:50
[6] = target: T1, protein F of hRSV strain B-1 (on RSV …); test: cell ELISA on RSV B-1-infected Hep2 cells, periplasmic extract 1:200
[7] = target: T3, hRSV FTM-NN (membrane anchorless form …); test: SPR (Biacore), FTM-NN amine-coupled on CM5 chip, 1:1 Langmuir fit
[8] = target: T3, hRSV FTM-NN (membrane anchorless form …); test: competition ELISA on FTM-NN, competitor Synagis Mab, purified Nanobody
[9] = target: T2, protein F of hRSV strain Long, on virus …; test: cell-based or functional assay; remark: listed apart in the source

B1: Nanobody 1G8 (VHH)
VHH: EVQLVESGGGSVQAGGSLRLSCAASGGSFNRFGMGWFRRAPGKERDFVAAINLSGDTTYYVDSVQGRFTISRDNANNIMYLQMNLLKPEDTADYYCAADPDPITAWKQSGAGMDYWGKGTQVTVSS
notes: also called PMP1G8; PRSV1G8
With B1 the “micro-neutralization of RSV B-1” value [1] was > 10 µM, the “Neutralization Long IC50” value [2] was 10000 nM and the “Neutralization B-1 IC50” value [3] was > 10 µM. The “Binding Long 1:10 PE (Fold blanc)” value [4] was 3.7 fold blanc, the “Binding Hep2-B-1 (% control) 1:50 PE” value [5] was 73 % control and the “Binding Hep2-B-1 (% control) 1:200 PE” value [6] was 43 % control.

B2: Nanobody NC41 (VHH)
VHH: EVQLVESGGGLVQAGGSLSISCAASGGSLSNYVLGWFRQAPGKEREFVAAINWRGDITIGPPNVEGRFTISRDNAKNTGYLQMNSLAPDDTAVYYCGAGTPLNPGAYIYDWSYDYWGRGTQVTVSS
With B2 the “micro-neutralization of RSV B-1” value [1] was > 10 µM, the “Neutralization Long IC50” value [2] was 221 nM and the Kd [7] was 8.1 nM. The koff [7] was 0.0067 s⁻¹, the kon [7] was 820000 M⁻¹ s⁻¹ and the IC50 [8] was 416 nM.

B3: Nanobody 7B2 (VHH)
VHH: EVQLVESGGGLVQAGDSLRLSCAASGRTFSSYAMGWFRQAPGKEREFVAAISWSDGSTYYADSVKGRFTISRDNAKNTVYLQMNSLKPEDTAVYYCAADLTSTNPGSYIYIWAYDYWGQGTQVTVSS
notes: also called PMP7B2; PRSV7B2
In the case of B3, the “RSV micro-neutralization on Long, IC50” value [9] is reported as 88 nM, the “micro-neutralization of RSV B-1” value [1] is reported as > 10 µM and the “Neutralization Long IC50” value [2] is reported as 108 nM. The “Neutralization B-1 IC50” value [3] was > 10 µM, the “Binding Long 1:10 PE (Fold blanc)” value [4] was 4.7 fold blanc and the Kd [7] was 1.5 nM. For the same binder, the koff [7] was 0.00049 s⁻¹, the kon [7] was 340000 M⁻¹ s⁻¹ and the “Binding Hep2-B-1 (% control) 1:50 PE” value [5] was 61 % control. The “Binding Hep2-B-1 (% control) 1:200 PE” value [6] was 41 % control and the IC50 [8] was 1.93 nM.

B4: Nanobody 1G3 (VHH)
VHH: EVQLVESGGGLVQAGGSLRLSCEASGRTYSRYGMGWFRQAPGKEREFVAAVSRLSGPRTVYADSVKGRFTISRDNAENTVYLQMNSLKPEDTAVYTCAAELTNRNSGAYYYAWAYDYWGQGTQVTVSS
notes: also called PMP1G3; PRSV1G3
With B4 the “micro-neutralization of RSV B-1” value [1] was > 10 µM, the “Neutralization Long IC50” value [2] was 413 nM and the “Neutralization B-1 IC50” value [3] was > 10 µM. The “Binding Long 1:10 PE (Fold blanc)” value [4] was 3.4 fold blanc, the “Binding Hep2-B-1 (% control) 1:50 PE” value [5] was 52 % control and the “Binding Hep2-B-1 (% control) 1:200 PE” value [6] was 45 % control. It also gave an IC50 [8] of 72.5 nM.

B5: Nanobody 19C4 (VHH)
VHH: EVQLVESGGGLVQAGGSLRLSCAASGRSFSNYVLGWFRQAPGKEREFVAAISFRGDSAIGAPSVEGRFTISRDNAKNTGYLQMNSLVPDDTAVYYCGAGTPLNPGAYIYDWSYDYWGRGTQVTVSS
notes: also called PMP19C4; PRSV19C4
In the case of B5, the “micro-neutralization of RSV B-1” value [1] is reported as > 10 µM, the “Neutralization Long IC50” value [2] is reported as 332 nM and the “Neutralization B-1 IC50” value [3] is reported as > 10 µM. For the same binder, the “Binding Long 1:10 PE (Fold blanc)” value [4] was 2.5 fold blanc, the “Binding Hep2-B-1 (% control) 1:50 PE” value [5] was 72 % control and the “Binding Hep2-B-1 (% control) 1:200 PE” value [6] was 50 % control. It also gave an IC50 [8] of 209 nM.
